From publication PMC9485244

Assays:
[1] = molecular target: TatB^mNeon (E. coli TatB C-terminally tagged with mNeonGreen) (E. coli) (UniProt P69425); assay: single-molecule photobleaching step counting; individual CellMask-positive IMVs adsorbed on plasma-cleaned coverslips, narrow-field epifluorescence (488 nm), 50 mM Tris-HCl, 150 mM NaCl, pH 7.5; step histograms (manual and PDD) fit to oligomer models (monomer to octamer) with Poisson distribution of complexes in IMVs and binomial fluorescence detection efficiency; copies per Tat receptor complex
[2] = molecular target: TatC^mNeon (E. coli TatC C-terminally tagged with mNeonGreen) (E. coli) (UniProt P69423); assay: as above

“TatB^mNeon (E. coli TatB C-terminally tagged with mNeonGreen) (from UniProt P69425 1-171) (natural protein)” was tested, and the stoichiometry N (copies per receptor complex) [1] was 4.
Work on “TatC^mNeon (E. coli TatC C-terminally tagged with mNeonGreen) (from UniProt P69423 1-258) (natural protein)” yielded a stoichiometry N (copies per receptor complex) [2] of 4.
